Columns and labels:
[1] = molecular target: lysozyme variant 2-3-7 (human)
[2] = molecular target: wild type human lysozyme (human) (UniProt P61626)
[3] = molecular target: lysozyme variant 2-3-7 (human); remark: listed apart in the source

IC50 - Mucin (µg/mL): concentration of polyanion that inhibits lytic activity of the enzyme on Micrococcus luteus by 50% [1]: 73 µg/mL | IC50 - Mucin (µg/mL): concentration of polyanion that inhibits lytic activity of the enzyme on Micrococcus luteus by 50% [2]: 11 µg/mL | fold increase in IC50 for mucin against WT-LYZ [3]: 6.91 fold
Substance: mucin
